{"source": "paper PMC5794975", "about": "“Mapping the interaction site and effect of the Siglec-9 inflammatory biomarker on human primary amine oxidase” (Scientific Reports, 2018)", "note": "Bridges are numbered along the chain shown (N, C = ends). Where no end group is shown, it is not given here.", "data": [{"molecular_target": "T1, Human primary amine oxidase (hAOC3), recombinant (human, UniProt Q16853 1-763, topaquinone (TPQ; 2,4,5-trihydroxyphenylalanine quinone, a post-translationally modified tyrosine); N-glycans at Asn137, Asn232, Asn294, Asn592, Asn618, Asn666)", "T1 sequence (looked up)": "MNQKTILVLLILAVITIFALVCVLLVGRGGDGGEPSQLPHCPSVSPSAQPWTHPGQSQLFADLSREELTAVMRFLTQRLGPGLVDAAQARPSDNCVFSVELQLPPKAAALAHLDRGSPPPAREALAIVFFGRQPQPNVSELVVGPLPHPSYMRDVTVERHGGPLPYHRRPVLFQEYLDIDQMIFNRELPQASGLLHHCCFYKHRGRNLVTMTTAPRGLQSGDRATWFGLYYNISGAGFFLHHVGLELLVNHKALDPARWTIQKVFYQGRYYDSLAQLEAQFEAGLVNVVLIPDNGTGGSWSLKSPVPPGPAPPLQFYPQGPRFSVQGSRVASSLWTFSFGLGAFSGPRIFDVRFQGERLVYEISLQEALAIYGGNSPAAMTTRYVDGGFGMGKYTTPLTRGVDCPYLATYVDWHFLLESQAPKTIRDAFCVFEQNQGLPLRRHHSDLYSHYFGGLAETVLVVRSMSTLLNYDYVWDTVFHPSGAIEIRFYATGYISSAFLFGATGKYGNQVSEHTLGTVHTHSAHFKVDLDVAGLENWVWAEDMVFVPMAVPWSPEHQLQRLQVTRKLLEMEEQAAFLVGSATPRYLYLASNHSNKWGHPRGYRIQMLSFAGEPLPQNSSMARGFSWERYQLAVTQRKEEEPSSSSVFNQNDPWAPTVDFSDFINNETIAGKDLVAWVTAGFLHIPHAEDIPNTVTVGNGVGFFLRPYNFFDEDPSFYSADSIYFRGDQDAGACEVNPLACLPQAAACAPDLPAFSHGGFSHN", "assay": "cell-based or functional assay", "units": {"activity of hAOC3-expressing CHO cells towards [7-14C]benzylamine with 5 µM peptide, percent of the control without peptide": "%"}, "values": [{"binder": "CARLSLSWRGLTLCPSK (disulfide 1-14)", "note": "[cyclic Siglec-9 peptide (CARLSLSWRGLTLCPSK)]", "activity of hAOC3-expressing CHO cells towards [7-14C]benzylamine with 5 µM peptide, percent of the control without peptide": 127}, {"binder": "CARLSLSWAGLTLCPSK (disulfide 1-14)", "note": "[R9A Siglec-9 peptide (CARLSLSWAGLTLCPSK)]", "activity of hAOC3-expressing CHO cells towards [7-14C]benzylamine with 5 µM peptide, percent of the control without peptide": 126}, {"binder": "CAALSLSWRGLTLCPSK (disulfide 1-14)", "note": "[R3A Siglec-9 peptide (CAALSLSWRGLTLCPSK)]", "activity of hAOC3-expressing CHO cells towards [7-14C]benzylamine with 5 µM peptide, percent of the control without peptide": 139}, {"binder": "CAALSLSWAGLTLCPSK (disulfide 1-14)", "note": "[R3A/R9A Siglec-9 peptide (CAALSLSWAGLTLCPSK)]", "activity of hAOC3-expressing CHO cells towards [7-14C]benzylamine with 5 µM peptide, percent of the control without peptide": 158}]}]}
